In US20130011406A1 (KOLLTAN PHARMACEUTICALS, published 2013):

B1: Fab antibody Ab13 (Fab, V domains shown)
VH: EVQLLESGGGLVQPGGSLRLSCAASGFTFSNYTMHWVRQAPGKGLEWVSVIYPSGGMTKYADSVKGRFTISRDNSKNTLYLQMNSLRAEDTAVYYCARGSTTFDYWGQGTLVTVSS
VL: DIQMTQSPGTLSLSPGERATLSCRASQSVRSNYLAWYQQKPGQAPRLLIYGASSRATGIPDRFSGSGSGTDFTLTISRLEPEDFAVYYCQQRSNWPITFGQGTRLEIK
notes: Fab from a phage library
B2: Fab antibody Ab17 (Fab, V domains shown)
VH: EVQLLESGGGLVQPGGSLRLSCAASGFTFSNYTMIWVRQAPGKGLEWVSRIWPSGGGTDYADSVKGRFTISRDNSKNTLYLQMNSLRAEDTATYYCARRVGASRYFDLWGRGTLVTVSS
VL: DIQMTQSPSSLSASVGDRVTVTCRASQNIDNYLNWYQQRPGKAPELLIYAASSLQSGVPSRFSGSGSGTDFTLTISSLQPEDFATYYCQQSYSNSRTFGQGTKVEIK
notes: Fab from a phage library
B3: Fab antibody Ab2 (Fab, V domains shown)
VH: EVQLLESGGGLVQPGGSLRLSCAASGFTFSNYKMGWVRQAPGKGLEWVSWIYPSGGGTFQADSVKGRFTISRDNSKNTLYLQMNSLRAEDTAVYYCARVRVGSTGNFDYWGQGTLVTVSS
VL: DIQMTQSPATLSLSPGERATLYCRASQSVSNYVAWYQQRPGQAPRLLMYDTSKRATGIPARFSGSGSGTDFTLTISSLEPEDFAVYYCQQRSYWFAFGGGTKVEIK
notes: Fab from a phage library
B4: Fab antibody Ab3 (Fab, V domains shown)
VH: EVQLLESGGGLVQPGGSLRLSCAASGFTFSPYNMMWVRQAPGKGLEWVSRISPSGGDTHYADSVKGRFTISRDNSKNTLYLQMNSLRAEDTAVYYCARGSRSSWSTPYYWGQGILVTVSS
VL: QSALTQPPSASGTPGQRVTISCSGSSSNIGNNYVYWYQQLPGTAPKLLIYRSNQRPSGVPDRFSGSKSGASASLAISGLRSEDEADYYCAAWDDSLIGPVFGGGTKLTVL
notes: Fab from a phage library
B5: Fab antibody Ab20 (Fab, V domains shown)
VH: EVQLLESGGGLVQPGGSLRLSCAASGFTFSRYGMAWVRQAPGKGLEWVSSIRPSGGYTAYADSVKGRFTISRDNSKNTLYLQMNSLRAEDTAVYYCARLPARFDYYYGLDVWGQGTTVTVSS
VL: DIQMTQSPATLSLSPGERATLSCRASQSVNIYLAWYQQRPGQAPRLLIYDASNRAIGVPARFSGTGSGTDFTLTISSLEPEDSAVYYCQQRDSWPPRLSFGGGTKVEIK
notes: Fab from a phage library

Each binder was assayed against T1, recombinant D4 domain polypeptide of human KIT (V308 to K412, with His tag) (human, UniProt P10721 26-412) (assay: solid phase ELISA, D4 polypeptide coated on plate).
T1 construct: also called D4 domain of human KIT
T1 sequence (P10721 other isoform, or with tags, fused parts or gaps limits assumed): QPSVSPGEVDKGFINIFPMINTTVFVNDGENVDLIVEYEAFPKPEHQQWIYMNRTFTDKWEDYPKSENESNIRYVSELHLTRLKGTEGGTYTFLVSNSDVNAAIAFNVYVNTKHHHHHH

Does B1 bind?
Result: binds

Does B2 bind?
Result: binds

Does B3 bind?
Result: binds

Does B4 bind?
Result: binds

Does B5 bind?
Result: binds
